Broadly, the Kd is a measure of binding affinity in units of concentration.

Results on 3 substances are retold here after patent publication EP4361176A1.

The target in test [1] is human FcγRIIIa V extracellular domain (human) (UniProt P08637). Kind of test: SPR; KD of G1d divided by KD of this antibody. For orientation: SPR reads the build-up and loss of mass on a sensor chip optically.
Test [2] has as its target human FcγRIIa R extracellular domain (human) (UniProt P12318). Put plainly: SPR; KD of G1d divided by KD of this antibody.
Test [3] deals with human FcγRIIIa V extracellular domain (human) (UniProt P08637). Kind of test: SPR; KD for FcγRIIb divided by KD for this FcγR.
For test [4], the target named is human FcγRIIa R extracellular domain (human) (UniProt P12318). Kind of test: SPR; KD for FcγRIIb divided by KD for this FcγR.
The target in test [5] is human FcγRIIIa V extracellular domain (human) (UniProt P08637). Kind of test: SPR (Biacore 8K+), captured antibody, 1:1 Langmuir model.
Test [6] deals with human FcγRIIa R extracellular domain (human) (UniProt P12318). Described as above.
Test [7] addresses human FcγRIIb extracellular domain with C-terminal His-tag (human) (UniProt P31994). Put plainly: SPR (Biacore T200), FcγRIIb 1000 nM, amount bound per unit captured antibody.
Test [8] shares this target. Put plainly: SPR; binding amount / that of MDX10D1H-G1m/MDX10D1L-k0MT.

Chain of H240-GASDALIE/L73-k0 (antibody) (heavy): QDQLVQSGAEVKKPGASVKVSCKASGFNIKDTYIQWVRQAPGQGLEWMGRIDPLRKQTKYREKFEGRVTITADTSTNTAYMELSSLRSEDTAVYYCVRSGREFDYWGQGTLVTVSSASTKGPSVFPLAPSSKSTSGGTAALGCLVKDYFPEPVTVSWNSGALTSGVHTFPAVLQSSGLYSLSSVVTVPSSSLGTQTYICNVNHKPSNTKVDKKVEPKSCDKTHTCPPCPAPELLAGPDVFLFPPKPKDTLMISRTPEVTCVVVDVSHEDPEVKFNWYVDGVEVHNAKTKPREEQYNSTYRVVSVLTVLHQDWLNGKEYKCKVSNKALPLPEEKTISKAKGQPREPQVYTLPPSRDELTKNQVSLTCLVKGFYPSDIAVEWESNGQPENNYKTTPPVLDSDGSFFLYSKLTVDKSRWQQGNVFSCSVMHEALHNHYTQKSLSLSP
Chain of H240-GASDALIE/L73-k0 (antibody) (light): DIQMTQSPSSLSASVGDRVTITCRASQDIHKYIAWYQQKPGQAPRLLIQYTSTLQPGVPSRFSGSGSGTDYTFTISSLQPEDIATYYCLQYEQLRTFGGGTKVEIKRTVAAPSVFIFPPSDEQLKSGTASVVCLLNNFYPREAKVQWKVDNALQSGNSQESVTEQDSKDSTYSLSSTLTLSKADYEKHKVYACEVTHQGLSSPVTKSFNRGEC
Chain of human FcγRIIb extracellular domain with C-terminal His-tag (human) (P31994 43-217): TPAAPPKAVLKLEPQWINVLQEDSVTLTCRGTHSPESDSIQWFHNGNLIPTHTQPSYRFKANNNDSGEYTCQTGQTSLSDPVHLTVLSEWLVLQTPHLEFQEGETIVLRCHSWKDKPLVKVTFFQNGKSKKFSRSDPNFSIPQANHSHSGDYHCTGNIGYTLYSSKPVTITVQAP

H240-GASDALIE/L73-k0 (antibody): the Relative value to KD between G1d and hFcgRs is 23.6 in test [1] and 10.3 in test [2]. For the same substance, the A/I ratio (KD for FcγRIIb divided by KD for each FcyR) in test [3] was 176; in test [4], 16.5. In addition, the Kd worked out at 15.2 nM in test [5] and 161 nM in test [6].
For MDX10D1H-G1m/MDX10D1L-k0MT (antibody), the Binding amount in test [7] is 0.012.
In the case of “MDX10D1H-GASDIE/MDX10D1L-k0MT (antibody)”, in test [8], the Relative binding amount is 5.8. Moreover, the Binding amount in test [7] turned out to be 0.072.
